Ten substances from patent US9260500B2, “Peptide and use thereof” (Takeda Pharmaceutical Company Limited, priority 2009, dated 2016) can be followed below.

Starred links: 1 amine or outer side, 2 acyl side, 3 side chain; linkers in the order of their positions; H or OH if unused. Non-standard residues stand in square brackets, D forms with d. Primed or numbered codes have the meaning given here. *: point of attachment. Asn(Me)″ = Nω-methylasparagine, CNC(=O)C[C@H](N[*:1])C(=O)[*:2]; Ser(Me)″ = O-methylserine, COC[C@H](N[*:1])C(=O)[*:2]; 1Nal = N[C@@H](Cc1cccc2ccccc12)C(=O)O; Cyclohexanecarbonyl = O=C(C1CCCCC1)*; Ala(cPr) = N[C@@H](CC1CC1)C(=O)O; 4Pal = N[C@@H](Cc1ccncc1)C(=O)O; Cha = N[C@@H](CC1CCCCC1)C(=O)O; Isobutyryl = CC(C)C(=O)*; Nle = CCCC[C@H](N)C(=O)O; Nva = CCC[C@H](N)C(=O)O; Abu = CC[C@H](N)C(=O)O; Aib = CC(C)(N)C(=O)O; Bz = O=C(c1ccccc1)*

The target in assay [1] is T1, human Y2 receptor (Homo sapiens, UniProt P49146).
T1 construct: expressed in transfected cells; membrane fraction
T1 sequence (P49146 1-381): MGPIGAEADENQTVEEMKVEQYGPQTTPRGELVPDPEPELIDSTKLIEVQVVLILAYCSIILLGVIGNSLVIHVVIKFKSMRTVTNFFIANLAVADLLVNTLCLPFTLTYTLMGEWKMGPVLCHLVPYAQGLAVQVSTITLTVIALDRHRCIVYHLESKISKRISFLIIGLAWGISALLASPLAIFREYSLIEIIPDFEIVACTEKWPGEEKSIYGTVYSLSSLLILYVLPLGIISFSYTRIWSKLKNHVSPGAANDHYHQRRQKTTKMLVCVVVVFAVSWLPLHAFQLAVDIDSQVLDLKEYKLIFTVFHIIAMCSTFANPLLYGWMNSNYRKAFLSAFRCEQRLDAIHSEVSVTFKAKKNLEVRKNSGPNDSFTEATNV
The experiment in a line: Human Y2 Receptor G Protein Binding Assay (GBA), [35S]GTPγS. The class given is biochemical. The note with it: EC50 of test compound/EC50 of PYY(3-36) (PYY3-36 taken as 1), hY2R/CHO membrane fraction. Put shortly: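 Agonism measured as [35S]GTPγS binding, read by GF/C filtration and scintillation counting after 120 min at room temperature, using human Y2 membranes at 1 μg protein/mL in pH 7.4 Tris/MgCl2/NaCl/GDP buffer. Compound serially diluted 100 μM–1 nM; EC50 normalized to PYY(3-36) (ratio = compound/PYY).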
Background: GTPγS is a poorly hydrolysed GTP analogue; its binding reports G protein activation.

Assay [2] deals with T1, human Y2 receptor. The assay can be described thus: Receptor Binding Assay (RBA) for Human Y2, [125I]-PYY displacement on hY2R/CHO membrane fraction. The note with it: IC50 of test compound/IC50 of PYY(3-36) (PYY(3-36) taken as 1). In a few lines:
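hY2R stably expressed in CHO/dhfr− cells; membrane fraction prepared from cells disrupted in 10 mM NaHCO3, 5 mM EDTA buffer with protease inhibitors. Binding read as displacement of [125I]-PYY.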

As to “Benzoyl-[Cha27,36, Ile28, Pya(4)31]-PYY(25-36) (Bz-RH[Cha]INL[4Pal]TRQR[Cha]-NH2; SMILES CC[C@H](C)[C@H](NC(=O)[C@H](CC1CCCCC1)NC(=O)[C@H](Cc1c[nH]cn1)NC(=O)[C@H](CCCNC(=N)N)NC(=O)c1ccccc1)C(=O)N[C@@H](CC(N)=O)C(=O)N[C@@H](CC(C)C)C(=O)N[C@@H](Cc1ccncc1)C(=O)N[C@H](C(=O)N[C@@H](CCCNC(=N)N)C(=O)N[C@@H](CCC(N)=O)C(=O)N[C@@H](CCCNC(=N)N)C(=O)N[C@@H](CC1CCCCC1)C(N)=O)[C@@H](C)O) [compound No. 71]”, the “GBA EC50 Ratio” value in the assay with human Y2 receptor [1] stood at 8.5. Besides, the “RBA IC50 Ratio” value in the assay with human Y2 receptor [2] amounted to 7.6.
“Benzoyl-[Cha27,36, Nal(1)28, Aib31]-PYY(25-36) (Bz-RH[Cha][1Nal]NL[Aib]TRQR[Cha]-NH2; SMILES CC(C)C[C@H](NC(=O)[C@H](CC(N)=O)NC(=O)[C@H](Cc1cccc2ccccc12)NC(=O)[C@H](CC1CCCCC1)NC(=O)[C@H](Cc1c[nH]cn1)NC(=O)[C@H](CCCNC(=N)N)NC(=O)c1ccccc1)C(=O)NC(C)(C)C(=O)N[C@H](C(=O)N[C@@H](CCCNC(=N)N)C(=O)N[C@@H](CCC(N)=O)C(=O)N[C@@H](CCCNC(=N)N)C(=O)N[C@@H](CC1CCCCC1)C(N)=O)[C@@H](C)O) [compound No. 63]”: the “GBA EC50 Ratio” value with human Y2 receptor [1] came to 25. Further, in the assay with human Y2 receptor [2], the “RBA IC50 Ratio” value is reported as 34.
The like results for “Benzoyl-[His27, Cha28,36, Aib31]-PYY(25-36) (Bz-RHH[Cha]NL[Aib]TRQR[Cha]-NH2; SMILES CC(C)C[C@H](NC(=O)[C@H](CC(N)=O)NC(=O)[C@H](CC1CCCCC1)NC(=O)[C@H](Cc1c[nH]cn1)NC(=O)[C@H](Cc1c[nH]cn1)NC(=O)[C@H](CCCNC(=N)N)NC(=O)c1ccccc1)C(=O)NC(C)(C)C(=O)N[C@H](C(=O)N[C@@H](CCCNC(=N)N)C(=O)N[C@@H](CCC(N)=O)C(=O)N[C@@H](CCCNC(=N)N)C(=O)N[C@@H](CC1CCCCC1)C(N)=O)[C@@H](C)O) [compound No. 104]” were, in that order, 4.3 and 5.6.
“Benzoyl-[Nva27, Cha28,36, Aib31]-PYY(25-36) (Bz-RH[Nva][Cha]NL[Aib]TRQR[Cha]-NH2; SMILES CCC[C@H](NC(=O)[C@H](Cc1c[nH]cn1)NC(=O)[C@H](CCCNC(=N)N)NC(=O)c1ccccc1)C(=O)N[C@@H](CC1CCCCC1)C(=O)N[C@@H](CC(N)=O)C(=O)N[C@@H](CC(C)C)C(=O)NC(C)(C)C(=O)N[C@H](C(=O)N[C@@H](CCCNC(=N)N)C(=O)N[C@@H](CCC(N)=O)C(=O)N[C@@H](CCCNC(=N)N)C(=O)N[C@@H](CC1CCCCC1)C(N)=O)[C@@H](C)O) [compound No. 103]”: in the assay with human Y2 receptor [1], the “GBA EC50 Ratio” value was 8.6. Also, the “RBA IC50 Ratio” value with human Y2 receptor [2] came to 13.
Take “Benzoyl-[Ser26, Cha27,28,36, Aib31]-PYY(25-36) (Bz-RS[Cha][Cha]NL[Aib]TRQR[Cha]-NH2; SMILES CC(C)C[C@H](NC(=O)[C@H](CC(N)=O)NC(=O)[C@H](CC1CCCCC1)NC(=O)[C@H](CC1CCCCC1)NC(=O)[C@H](CO)NC(=O)[C@H](CCCNC(=N)N)NC(=O)c1ccccc1)C(=O)NC(C)(C)C(=O)N[C@H](C(=O)N[C@@H](CCCNC(=N)N)C(=O)N[C@@H](CCC(N)=O)C(=O)N[C@@H](CCCNC(=N)N)C(=O)N[C@@H](CC1CCCCC1)C(N)=O)[C@@H](C)O) [compound No. 97]”: the “GBA EC50 Ratio” value with human Y2 receptor [1] was 6.0. In the assay with human Y2 receptor [2], the “RBA IC50 Ratio” value is reported as 13.
The like results for “Benzoyl-[Ser(Me)26, Cha27,28,36, Aib31]-PYY(25-36) (Bz-R[Ser(Me)″][Cha][Cha]NL[Aib]TRQR[Cha]-NH2; SMILES COC[C@H](NC(=O)[C@H](CCCNC(=N)N)NC(=O)c1ccccc1)C(=O)N[C@@H](CC1CCCCC1)C(=O)N[C@@H](CC1CCCCC1)C(=O)N[C@@H](CC(N)=O)C(=O)N[C@@H](CC(C)C)C(=O)NC(C)(C)C(=O)N[C@H](C(=O)N[C@@H](CCCNC(=N)N)C(=O)N[C@@H](CCC(N)=O)C(=O)N[C@@H](CCCNC(=N)N)C(=O)N[C@@H](CC1CCCCC1)C(N)=O)[C@@H](C)O) [compound No. 98]” were, in that order, 8.7 and 18.
On the same counts, the results for “Cyclohexanecarbonyl-[Cha27,36, Ala(cPr)28, Aib31]-PYY(25-36) (Cyclohexanecarbonyl-RH[Cha][Ala(cPr)]NL[Aib]TRQR[Cha]-NH2; SMILES CC(C)C[C@H](NC(=O)[C@H](CC(N)=O)NC(=O)[C@H](CC1CC1)NC(=O)[C@H](CC1CCCCC1)NC(=O)[C@H](Cc1c[nH]cn1)NC(=O)[C@H](CCCNC(=N)N)NC(=O)C1CCCCC1)C(=O)NC(C)(C)C(=O)N[C@H](C(=O)N[C@@H](CCCNC(=N)N)C(=O)N[C@@H](CCC(N)=O)C(=O)N[C@@H](CCCNC(=N)N)C(=O)N[C@@H](CC1CCCCC1)C(N)=O)[C@@H](C)O) [compound No. 78]” are 23 and 15.
The like results for “Cyclohexanecarbonyl-[Cha27,36, Ile28,31, Asn(Me)29]-PYY(25-36) (Cyclohexanecarbonyl-RH[Cha]I[Asn(Me)″]LITRQR[Cha]-NH2; SMILES CC[C@H](C)[C@H](NC(=O)[C@H](CC1CCCCC1)NC(=O)[C@H](Cc1c[nH]cn1)NC(=O)[C@H](CCCNC(=N)N)NC(=O)C1CCCCC1)C(=O)N[C@@H](CC(=O)NC)C(=O)N[C@@H](CC(C)C)C(=O)N[C@H](C(=O)N[C@H](C(=O)N[C@@H](CCCNC(=N)N)C(=O)N[C@@H](CCC(N)=O)C(=O)N[C@@H](CCCNC(=N)N)C(=O)N[C@@H](CC1CCCCC1)C(N)=O)[C@@H](C)O)[C@@H](C)CC) [compound No. 75]” were, in that order, 37 and 76.
In the case of “Cyclohexanecarbonyl-[Nle26, Cha27,28,36, Aib31]-PYY(25-36) (Cyclohexanecarbonyl-R[Nle][Cha][Cha]NL[Aib]TRQR[Cha]-NH2; SMILES CCCC[C@H](NC(=O)[C@H](CCCNC(=N)N)NC(=O)C1CCCCC1)C(=O)N[C@@H](CC1CCCCC1)C(=O)N[C@@H](CC1CCCCC1)C(=O)N[C@@H](CC(N)=O)C(=O)N[C@@H](CC(C)C)C(=O)NC(C)(C)C(=O)N[C@H](C(=O)N[C@@H](CCCNC(=N)N)C(=O)N[C@@H](CCC(N)=O)C(=O)N[C@@H](CCCNC(=N)N)C(=O)N[C@@H](CC1CCCCC1)C(N)=O)[C@@H](C)O) [compound No. 77]”, the “GBA EC50 Ratio” value in the assay with human Y2 receptor [1] amounted to 33. The “RBA IC50 Ratio” value in the assay with human Y2 receptor [2] came out at 50.
On the same counts, the results for “Isobutanoyl-[Abu26,27, Cha28,36, Aib31]-PYY(25-36) (Isobutyryl-R[Abu][Abu][Cha]NL[Aib]TRQR[Cha]-NH2; SMILES CC[C@H](NC(=O)[C@H](CCCNC(=N)N)NC(=O)C(C)C)C(=O)N[C@@H](CC)C(=O)N[C@@H](CC1CCCCC1)C(=O)N[C@@H](CC(N)=O)C(=O)N[C@@H](CC(C)C)C(=O)NC(C)(C)C(=O)N[C@H](C(=O)N[C@@H](CCCNC(=N)N)C(=O)N[C@@H](CCC(N)=O)C(=O)N[C@@H](CCCNC(=N)N)C(=O)N[C@@H](CC1CCCCC1)C(N)=O)[C@@H](C)O) [compound No. 94]” are 37 and 31.
